From the supplement of paper PMC9170038

Tested on: K4 kissing-loop RNA reporter
Assay: apparent KD of K4 kissing-loop reporter; higher = weaker reporter binding
Conditions: Eterna round: R107
Method: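 RNA-MaP round R107: designed RNA switches with theophylline, tryptophan, arginine or FMN aptamers are transcribed on-chip within common flanks. They are titrated with a labelled K4 kissing-loop RNA reporter in RNA-MaP buffer (100 mM Tris pH 7.5, 80 mM KCl, 4 mM MgCl2), without ligand or with the indicated ligand. Median apparent KD per design.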

[1] = input ligand: theophylline 20 uM
[2] = input ligand: tryptophan 2.4 mM
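Further: bound reporter read as fluorescence of individual clusters on recovered sequencing chips by microscopy, with normalized cluster intensities fitted with a binding model.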

Sequence | apparent KD of K4 kissing-loop reporter (input ligand: FMN 200 uM) [µM] | apparent KD of K4 kissing-loop reporter (input ligand: arginine 13.2 mM) [µM] | apparent KD of K4 kissing-loop reporter (input ligand: none) [µM] | apparent KD of K4 kissing-loop reporter [1] [µM] | apparent KD of K4 kissing-loop reporter [2] [µM]
AAAAUAAACCAGUGAUGUUGGUGUCUAGAUACCAGCGACGAAAGUCGCCCUUGGCAGCUAUGGACGUACAAAAUAAGUACGUCCU [MatMod 6 - Jieux - Same State - Theophylline A] | 0.647 | 0.459 | 0.617 | 0.679 | 0.612
UUAGUAUAGAGAGGAUAUACCUUCCAGUGAUGUUGGAUAGAUGAAUUUAAUCAUCAAGCAUAGCUUGUAGAAGGCUCUAUACAUU [AK1 SS FMN B] | 0.373 | 0.558 | 0.535 | 0.637 | 0.613
AUUAAUUUCAGAGGAUAUCGUAUUUAUAUUUUAUCUUUCCAUAUUUGCAGUGAUGUUGCAUUAAUUCGAGAAGGCUGAUUUAUAA [JR_ExcFMNB_Sub008] | 0.079 | 0.084 | 0.0615 | 0.0751 | 0.0555
GCGCGGGAGUGAUGUUCCAAGUGGUGUUAGCGAGGACCGGUACGGCCGCCACUCGUUACGGCCGGGCCGUAGGAUACACUGGCGC [Same State - Tryptophan A (Freestyle 17)] | 0.308 | 0.218 | 0.286 | 0.29 | 0.24
ACAUCGGUUGAGAGUGAUGUUCCUUGUGUUCGAGGACCGGUACGGCCGCCACUCGGGUAGAAAAUAAAAGAUGUGUUUGAUUUUU [BDazzled - #15 SS Tryptophan A] | 0.26 | 0.0421 | 0.143 | 0.275 | 0.223
AUUUGUUUAUGUGAUACCAGACUUUGCAGUGAUGUUGCAUUUAUUUUAGAAUUUUAUUUAGUCCCUUGGCAGCACUAUGUAUUUA [JR_SSTheophyB_Sub007] | 0.047 | 0.0904 | 0.0531 | 0.0925 | 0.0459
UUUUGCGCGUACGAUACCAGUAUCUGUAAGAGUGAUGUUCAGCGCUGAAGACAGCAGCGAUACCCUUGGCAGCGUUACAUGCUAG [theeternabot_sameState_KL_Theo_B_22] | 0.797 | 0.422 | 0.553 | 0.475 | 0.53
AAGCAGUCACUCGAAGCCAUCGAAGAUGGCCGAGGACCGGUACGGCCGCCACUCGGAGUGAUGUUCCGAAGACUGCAAAAUAAAA | 0.313 | 0.303 | 0.355 | 0.363 | 0.306
GAUCUGAACGAAAGUUCGGAUCAGUCCGAUACCAGUAUGGAUUCAUACCCUUGGCAGCGGAAAUCUGCUAUGGAGUGAUGUUCCU [Theophylline A K4 13] | 0.362 | 0.28 | 0.413 | 0.396 | 0.274
CGCAGUGAUGUUGCGAGUUUAUUCAGGGAAGGAGCGCCACAGAUGGCAGGUAGGUCGCCCACGCAGUGAUGUUGUGUAUUCGGGU [Exclusion Arginine A GF 3] | 0.141 | 0.128 | 0.127 | 0.128 | 0.116
CUCACAGUGAUGUUGUGGGCCGAGAGUGAUACCAGCCGUAUUUGUGGCCCUUGGCAGCGCAAAAGCCGAGUGAUGUUCGAAUCGG [Same State Theophylline A GF 24] | 0.211 | 0.196 | 0.207 | 0.19 | 0.192
UGGGAUUUGUCAGGAUAUGAGUGCAGUGAUGUUGCACUUAAUAAAGUACAUAGGCCCUGCUGGCACUCAGAAGGGACGGUGAUGC [Lalasobeer] | 0.122 | 0.0736 | 0.103 | 0.0867 | 0.0924
UUUAUAAUGUCGGCCGCCACUGGAUUAAUAUUUGUAUAAUCUAGUUCUGAGUGAUGUUUAGAGUCCAGGACCGGGACAUUUGUUA [#10 K4 Tryptophan B Exclusion] | 0.701 | 0.515 | 0.651 | 0.788 | 0.52
AAGUGAUGUUGUAGUGAUGUUGUGAUGUUGCAGGAUAUAUAGUGAUGUAGAAGGGUAUGUACAGUUUUUUUUUUUGAGUGUUGAU [sscsmullin] | 0.0797 | 0.036 | 0.0622 | 0.0478 | 0.0662
GUUUGGCGGGCGGCCGCCACUCGGACGAGUCGCAGUGAUGUUGUGGUUUGCCAGUCGUCUUCAUCGAGGACCGGGUUUGUCGGGC [Exclusion Tryptophan B GF 19] | 0.495 | 0.38 | 0.6 | 0.571 | 0.496
CAACCGUAACACGAUACCAGCCUAGAAGCCAGUGAUGUUGGCCUUUUUUCGGAAAUGAAAGGCCCUUGGCAGCGUGGAUAAAAUG [Lelabiised] | 0.451 | 0.464 | 0.505 | 0.379 | 0.501
CUUUAUCAACCAGAUACCAGCGGUUCUCUAGUUGGCUUCCGUAGUGAUGUUGCGUGGUCCCGCCCUUGGCAGCUGGCCAUGACUA [theeternabot_sameState_KL_Theo_B_5] | 1.06 | 0.684 | 1.17 | 0.798 | 0.993
UUUUUUAAUGGAAGGAGCGCGUGGGCGCAGUGAUGUUGCGCCCGACAUCACUUCAACUUAACGCAGGUAGGUCGCCAUUAUUUUU [Arginine B (Excl) V6] | 0.136 | 0.128 | 0.122 | 0.119 | 0.127
AUACGUUUAAGUGAUACCAGACUGGUGAGUGAUGUUUACCAAUAAAUUAAAUUAUUAGCUGUCCCUUGGCAGCACAGUUUAUUUA [JR_ExcTheophyB_Sub005] | 0.258 | 0.33 | 0.317 | 0.323 | 0.229
UGGCGUUGAACCGCCGAAUCGCUGUGAGAAGGAGCGGUAAAAUUGCCAGGUAGGUCGCUCACAGCUUCACAGUGAUGUUGUGGAA [Enxeisen] | 0.248 | 0.161 | 0.408 | 0.212 | 0.188
AGGAGCGUGGGAUGGAAAUCGCACGCUCCUCGAGGACCGGUACGGCCGCCACUCGCUCGCGCCGAGUGAUGUUCGGCCGGCGAAC [#2 Same State - Tryptophan A Attempt #11 (HarryS)] | 0.131 | 0.111 | 0.451 | 0.178 | 0.482
